Numbering of substitutions follows the chain as printed.
B1: 43H7 (antibody, human IgG2, V domains shown)
VH: QVQLVESGGGVVQPGRSLRLSCAASGFTFSTYGMHWVRQAPGKGLEWVTFIWYDGRNKYYADSVKGRFTVSRDNSKNTLYLQMNSLRAEDTAVYYCARGDDYGDYHPHYYYYGLDVWGQGTTVTVSS
VL: DIVMTQTPLSLSVTPGQPASISCKSSQSLLDSDGKTYLYWYLQKPGQPPQLLIYEVSNRFSGVPDRFSGSGSGTDFTLKISRVEAEDVAYYYCMQSIQLPWTFGQGTKVEIK
notes: Fully human, XenoMouse XMG2; also called #11; Cur12.1 PL43 H7
B2: 9G12 (antibody, human IgG2, V domains shown)
VH: B1 VH with T31G, T49A, D54N, R56N, N57D, K58N, A61T, V70I, L114M
VL: B1 VL with V88I, A89G, Y90V, M94L
notes: Fully human, XenoMouse XMG2; also called #36; Cur12.1 PL09 G12
B3: 35F1 (antibody, human IgG2, V domains shown)
VH: QVQLQESGPGLVKPSQTLSLTCTVSGGSIKSGDYYWSWVRQLPGKGLEWIGYIYYSGSTYYNPSLKSRVTISIDTSKNQFSLKLSSVTAADTAVYYCAREGSYYDSGGFDYWGQGTLVTVSS
VL: not shown
notes: Fully human, XenoMouse XMG2; also called #50; Cur12.1 PL35 F1
B4: 42C1 (antibody, human IgG2, V domains shown)
VH: B3 VH with G27V, K30S, D33G, V39I, L42H, I73V, Y95F, S102E, S106E
VL: not shown
notes: Fully human, XenoMouse XMG2; also called #24; Cur12.1 PL42 C1

Assays:
[1] = target: T1, recombinant human SLPI (Secretory leukocyte protease inhibitor), R&D Systems Cat#260-PI (human, UniProt P03973 25-131, biotinylated in the streptavidin-plate ELISAs and on SRBCs); assay: ELISA, recombinant antibody in HEK 293 supernatant titrated 1:2 on biotinylated human SLPI
T1 construct: Bought protein; also called biotinylated SLPI; B-Cur12
Text: After isolation of single plasma cells, mRNA was extracted and reverse transcriptase PCR was used to generate cDNA. The cDNA encoding the variable heavy and light chains was specifically amplified using polymerase chain reaction. The variable heavy chain region was cloned into an IgG2 expression vector, generated by cloning the constant domain of human IgG2 into the multiple cloning site of pcDNA3.1+/Hygro (Invitrogen, Burlington, ON). The variable light chain region was cloned into an IgK expression vector, generated by cloning the constant domain of human IgK into the multiple cloning site of pcDNA3.1+/Neo (Invitrogen, Burlington, ON). The heavy chain and the light chain expression vectors were then co-lipofected into a 60 mm dish of 70% confluent human embryonic kidney 293 (HEK 293) cells and the transfected cells were incubated for 24 hours to secrete recombinant antibody. Supernatant (3 mL) was harvested from the HEK 293 cells and the secretion of intact antibody and binding to SLPI tested ELISA. To detection secretion, 96 well plates were coated with 2 μg/mL of goat anti-human IgG H+L overnight. For detection of SLPI binders, streptavidin plates were coated with biotinylated human SLPI (0.5 μg/mL) overnight at four degrees. The plates were washed five times with dH₂O. Recombinant antibodies titrated 1:2 for 7 wells from the undiluted minilipofection supernatant were added, incubated and the plates were washed five times with dH₂O. Goat anti-human IgG Fc-specific HRP-conjugated antibody was added at a final concentration of 1 μg/mL, incubated for 1 hour at RT and the plates were washed as before. Plates were developed with the addition of TMB for 30 minutes and the reaction was stopped by the addition of 1 M phosphoric acid. Each ELISA plate was analyzed to determine the optical density of each well at 450 nm.

[2] = target: T1, recombinant human SLPI (Secretory …); assay: limiting antigen ELISA, biotinylated SLPI coated at 50 ng/ml
Experimental: (§1) The limiting antigen analysis is a method that affinity ranks the antigen-specific antibodies in B cell culture supernatants. […] Each plate was washed 5 times with dH₂O, before 46 μl/well of 1% milk in PBS with 0.05% sodium azide was added, followed by 4 μl/well of B cell supernatant. After 22 hours at RT on a shaker, the plates were again washed 5 times with dH₂O. Goat anti-Human (Fc)-HRP at 1 μg/ml, 50 μl/well was added. After 1 hour at RT, the plates were again washed 5 times with dH₂O and 50 μl/well of TMB substrate was added. The reaction was stopped by the addition of 50 μl of 1M phosphoric acid to each well and the plates were read at wavelength 450 nm. 42C1, 43H7, 35F1 and 9G12 were chosen for further evaluation and cloning.

[3] = target: T1, recombinant human SLPI (Secretory …); assay: limiting antigen ELISA, biotinylated SLPI coated at 400 ng/ml
Experimental: as §1

[4] = target: T1, recombinant human SLPI (Secretory …); assay: limiting antigen ELISA, biotinylated SLPI coated at 100 ng/ml
Experimental: as §1

[5] = target: T2, SLPI of human tumour cell lines (endogenous; on cells or in conditioned media) (human, UniProt P03973 26-132); assay: cell-based or functional assay
[6] = target: T2, SLPI of human tumour cell lines …; assay: flow cytometry, 42C1 at 170 nM on OVCAR-5 cells
Experimental: (§2) FACS analysis of anti-SLPI antibody binding to OVCAR4, OVCAR-5, OVCAR-8, SK-OV-3, A2780, SF294, 786-0 cell lines was done as follows. Suspended cells were washed twice with ice-cold FACS buffer (SOURCE) and incubated with antibody 42C1 (170 nM/FACS buffer) for 1 hr then washed. Cells were incubated with a 1:500 dilution in FACS buffer of […] donkey anti-human IgG (H+L) (Jackson Immunolabs) for 30 minutes. Cells were washed and then fixed with 1% formaldehyde in PBS. Analysis was done using a FACS Calibur™ flow cytometer (Becton Dickinson, Frankin Lakes, N.J.).
(§3) 42C1 antibody bound SLPI on SLPI expressing ovarian cancer cell lines: OVCAR-4 (Geo Mean Ratio 37), OVCAR-5 (Geo Mean Ratio 10), and OVCAR-8 (Geo Mean Ratio 35) as compared to SLPI negative cell line 786-0 (Geo Mean Ratio 3).

[7] = target: T2, SLPI of human tumour cell lines …; assay: flow cytometry, 42C1 at 170 nM on OVCAR-4 cells
Experimental: as §2, §3

[8] = target: T2, SLPI of human tumour cell lines …; assay: flow cytometry, 42C1 at 170 nM on OVCAR-8 cells
Experimental: as §2, §3

T1 sequence (P03973 25-131): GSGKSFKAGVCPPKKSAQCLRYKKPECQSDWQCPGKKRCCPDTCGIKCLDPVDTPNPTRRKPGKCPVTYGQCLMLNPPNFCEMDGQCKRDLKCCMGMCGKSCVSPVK
T2 sequence (P03973 26-132 limits assumed): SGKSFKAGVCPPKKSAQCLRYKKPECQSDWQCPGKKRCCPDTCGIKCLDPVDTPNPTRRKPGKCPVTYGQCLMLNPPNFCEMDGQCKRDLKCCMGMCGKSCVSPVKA

Binder | Binding to SLPI (titre of supernatant) [1] [reciprocal dilution] | OD [2] [OD450] | OD [3] [OD450] | OD [4] [OD450] | IC50 of growth inhibition of IGROV-1 cells, clonogenic assay [5] [nM] | IC50 of growth inhibition of SW480 cells, clonogenic assay [5] [nM] | Geo Mean Ratio [6] | Geo Mean Ratio [7] | Geo Mean Ratio [8]
B1 | > 64 | 1.19 | 4.02 | 2.6 |  |  |  |  | 
B2 | > 64 | 0.6 | 2.19 | 0.98 |  |  |  |  | 
B3 | > 64 | 0.17 | 0.3 | 0.2 | 163 | 85 |  |  | 
B4 | > 64 | 3.01 | 3.58 | 3.42 | 121 | 85 | 10 | 37 | 35

Reference: US20050142137A1 (CURAGEN, published 2005)
